Source: paper doi:10.1101/2025.04.29.651185

Key:
[1] = molecular target: proteorhodopsin from the marine SAG AG-319-B05 Pseudothioglobus (PsPR) (Pseudothioglobus sp. (SAG AG-319-B05)); assay: cryo-EM structure
[2] = molecular target: flotillin-associated rhodopsin from the marine SAG AG-319-B05 Pseudothioglobus (PsFAR) (Pseudothioglobus sp. (SAG AG-319-B05)); assay: cryo-EM structure

Substance	stoichiometry N [1]	stoichiometry N [2]
proteorhodopsin from the marine SAG AG-319-B05 Pseudothioglobus (PsPR) (natural protein)	5	–
flotillin-associated rhodopsin from the marine SAG AG-319-B05 Pseudothioglobus (PsFAR) (natural protein)	–	5
